Source: doi:10.1101/709485 (bioRxiv, 2019)
Non-standard residues stand in square brackets, D forms with d. No end group written: not given here. pT = C[C@@H](OP(=O)(O)O)[C@H](N)C(=O)O

Assays:
SUMO2 [1] = target: SUMO2 (UniProt P61956)
SUMO2 [2] = target: SUMO2 (UniProt P61956); assay: NMR titration
SUMO1 = SUMO1 (UniProt P63165); assay: NMR titration
[3] = target: Chk2-FHA domain (aa:64-212) (UniProt O96017 64-212); assay: ITC
Chain of Chk2-FHA domain (aa:64-212) (O96017 64-212): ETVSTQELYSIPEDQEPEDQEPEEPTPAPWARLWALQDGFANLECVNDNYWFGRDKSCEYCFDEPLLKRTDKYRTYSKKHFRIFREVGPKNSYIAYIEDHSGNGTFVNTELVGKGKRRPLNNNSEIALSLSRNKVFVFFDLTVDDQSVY

Chain of SUMO1 (P63165 1-97): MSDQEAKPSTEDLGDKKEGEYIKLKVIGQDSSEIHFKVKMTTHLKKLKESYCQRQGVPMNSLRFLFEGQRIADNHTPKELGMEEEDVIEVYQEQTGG

Molecule | Kd (SUMO2 [2]) [µM] | Kd (SUMO1) [µM] | further results
ICP0pm (phosphomimetic full-length ICP0, Ser365 and Ser367 mutated to aspartic acids) (from UniProt P08393 1-775) (enzyme) | – | – | STUbL activity on SUMOylated FLAG-PMLs, against ICP0 (fold (against ICP0)) (SUMO2 [1]): 5
SLS4 peptide of ICP0 | 81 | 128 | –
pSLS4 peptide of ICP0 (SLS4 phosphorylated at Ser365) | 7 | 16 | –
ppSLS4 peptide of ICP0 (SLS4 phosphorylated at Ser365 and Ser367) | 3 | 5 | –
DDDSASEADSTD[pT]ELFETGL [ICP0-FBM peptide, phosphorylated at Thr67 (FHA Binding Motif, aa: 55-74)] | – | – | Kd [3]: 0.75 ± 0.05 µM; dH [3]: -5.8 ± 0.1 kcal/mol; stoichiometry N [3]: 1.23
